The text below walks through data of US20160340421A1 (Regeneron, published 2016).

The target of test [1] is T1, Human GDF8 homodimer (mature human Growth and Differentiation Factor-8) (human, UniProt O14793 267-375).
T1 sequence: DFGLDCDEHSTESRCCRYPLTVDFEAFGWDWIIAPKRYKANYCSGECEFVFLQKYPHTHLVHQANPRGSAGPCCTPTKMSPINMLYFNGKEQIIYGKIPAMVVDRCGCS
The test is described as follows: cell-based or functional assay.

The target in test [2] is T1, Human GDF8 homodimer (mature human …). Briefly: SPR Biacore T100, captured on anti-hFc, 25°C. The method, then:
(§1) Additional antigen binding experiments were conducted in which GDF8 and GDF11 were applied over a surface of selected anti-GDF8 antibodies and control antibodies at 25° C. and 37° C. Equilibrium dissociation constants (KD values) for antigen binding to selected antibodies were determined by surface kinetics using a real-time biosensor surface plasmon resonance assay (BIACORE™ T100). […] Various concentrations (2.5-0.625 nM, 2-fold dilutions) of hGDF8 homodimer or hGDF11 homodimer (or in some experiments, Activin A) were injected over the captured antibody surfaces, and antigen-antibody binding and dissociation were monitored in real time. Kinetic analysis was performed to calculate KD, dissociation rate constants (kd), association rate constants (ka) and half-life of antigen/antibody complex dissociation. (NB=no binding observed).
(SPR reads the build-up and loss of mass on a sensor chip optically.)

The target is the same in test [3]. Briefly: SPR Biacore T100, captured on anti-hFc, 37°C. The protocol:
as §1

The target in test [4] is T2, hGDF11 homodimer (human, UniProt O95390 299-407).
T2 sequence (looked up): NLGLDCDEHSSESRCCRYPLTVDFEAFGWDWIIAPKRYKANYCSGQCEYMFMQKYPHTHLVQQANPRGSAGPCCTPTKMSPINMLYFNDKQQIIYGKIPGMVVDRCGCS
The test is described as follows: GDF11-inducible luciferase bioassay, 0.4 nM GDF11 (legend: NB=no binding).

Test [5] has as its target T1, Human GDF8 homodimer (mature human …). The test is described as follows: cell-based or functional assay. The source holds these as a separate data set.
Test [6] deals with T2, hGDF11 homodimer. The test is described as follows: cell-based or functional assay.
Test [7] concerns the target T1, Human GDF8 homodimer (mature human …). The test is described as follows: SPR, antibody captured, 25 nM antigen. The protocol: (§2) Equilibrium dissociation constants (KD values) for antigen binding to selected antibodies were determined by surface kinetics using a real-time biosensor surface plasmon resonance assay (BIACORE™ 2000). Each selected antibody was captured on either a goat anti-mouse IgG polyclonal antibody surface or a goat anti-hFc polyclonal antibody (Jackson Immuno Research Lab) surface created through direct chemical coupling to a BIACORE™ chip to form a captured antibody surface. Human GDF8 homodimer, hGDF11 homodimer, or hGDF5 homodimer at 25 nM was injected over the captured antibody surfaces, and antigen-antibody binding and dissociation were monitored in real time at room temperature. Kinetic analysis was performed to calculate KD, dissociation rate constants (kd), association rate constants (ka) and half-life of antigen/antibody complex dissociation (Table 2).

Test [8] deals with T2, hGDF11 homodimer. The test is described as follows: SPR, antibody captured, 25 nM antigen. The protocol:
as §2

Test [9] addresses T2, hGDF11 homodimer. Briefly: cell-based or functional assay. This is another data set of the same source.
The target of test [10] is T3, GDF8/TGFβ[48-72] chimera (T48): GDF8.1-47.TGFβ1.49-76.GDF8.73-109 (human GDF8 with human TGFβ-1 sequence).
T3 chain: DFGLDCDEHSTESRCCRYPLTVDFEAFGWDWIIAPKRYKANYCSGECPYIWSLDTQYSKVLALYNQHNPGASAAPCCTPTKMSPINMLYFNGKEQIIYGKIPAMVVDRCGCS
The test is described as follows: cell-based or functional assay.

For test [11], the target named is T1, Human GDF8 homodimer (mature human …). The test is described as follows: SPR, antibody captured, buffer without BSA. The protocol: as §2
Test [12] deals with T2, hGDF11 homodimer. Briefly: SPR, antibody captured, buffer without BSA. The protocol: as §2

B1: H4H1669P (antibody, V domains shown)
VH: QVQLVESGGGVVQPGKSLRLSCAASGFTFSSFGMHWVRQAPGKGLEWVAVIGYDGGNEYYADSVKGRFTISRDNSKNTLNLQMSSLRAEDTAVYYCSTISHYDILSGMDVWGRGTTVTVSS
VL: DIQMTQSPSSVSASVGDRVTITCRASQGISNWLAWYQQKPGKAPKLLIFAASSLQSGVPSRFSGSASGTDFTLTINSLQPEDFATYYCQQANSFPLTFGGGTKVEIKR
notes: captured by anti-hFc, so human Fc
As a reminder, the Kd is the equilibrium constant for the complex coming apart. A high value points to weaker binding. For the molecule B1, the “IC50, luciferase bioassay, 0.5 nM GDF8” value in [1] was determined as 900 pM. Besides, the figures for the Kd in test [2] and in test [3] were 39.3 pM and 58.4 pM, respectively. Also, the T1/2 stood at 2.18 h in test [2] and 0.667 h in test [3]. The binding result in the test with hGDF11 homodimer [4] is “no binding”.

B2: 3A4-3 (antibody, V domains shown)
VH: QVQLVQSGGGLVKPGGSLRLSCAASGFIFNTYTMNWVRQAPGKGLEWVSSITSRGTYIFYSDSLKGRFTISRDNANNSLFLQMNSLRVEDTAVYYCSRDRGYTFGPDYWGQGTLVTVSS
VL: DIQMTQSPSSLSASVGDRVTITCRASQDIRNDLGWYQQKPGKAPKGLIYAASSLQSGVPSRFSGSGSGTEFTLTISSLQPEDFATYHCLHYDFHPRTFGQGTKVEIK
Regarding B2, in test [5], the “IC50, GDF8-inducible luciferase, A204/Smad2 cells, 0.8 nM GDF8” value (from here on “IC50 … A204/Smad2 cells, 0.8 nM GDF8”) was 3100 pM. The “IC50, GDF11-inducible luciferase, A204/Smad2 cells, 0.8 nM GDF11” value (from here on “IC50 … A204/Smad2 cells, 0.8 nM GDF11”) with hGDF11 homodimer [6] was over 20000 pM. In test [7], this molecule registered a Kd of 1070 pM and a T1/2 of 2.28 h. In the test with hGDF11 homodimer [8], the Kd worked out at 510 pM and the T1/2 stood at 1.18 h.

B3: 4G3-25 (antibody, V domains shown)
VH: QVQLVESGGGVVQPGRSLRLSCVVSGFNFSRNGIHWVRQAPGKGLEWVAVISYDGRNKFYVESVKGRFTISRDNSKNTLYLQMNSLRVEDTAVYYCAKSSIGGFFEYWGQGTLVTVSS
VL: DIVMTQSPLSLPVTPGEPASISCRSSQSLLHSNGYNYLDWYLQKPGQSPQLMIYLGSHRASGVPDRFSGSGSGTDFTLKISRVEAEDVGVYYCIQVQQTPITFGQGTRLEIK
As to B3, the “IC50 … A204/Smad2 cells, 0.8 nM GDF8” value in test [5] is over 25000 pM. In addition, in the test with hGDF11 homodimer [6], the “IC50 … A204/Smad2 cells, 0.8 nM GDF11” value is over 25000 pM. The values for the Kd (in test [7]; in the test with hGDF11 homodimer [8]) were 3900 pM and 1410 pM, respectively. In addition, the T1/2 in [7] is 0.417 h; in the test with hGDF11 homodimer [8] it was 0.65 h.

B4: 21-E5 (antibody, V domains shown)
VH: QVQLVESGPGLVKPSETLSLTCTVYGGSISSGNYYWGWIRQPPGKGLEWIGTIYYSGSAYYNPSLKSRVTMSVDTSKNQFSLKLSSVTAADTAVYYCVRDYYDSSGHYYNWFDPWGQGTTVTVSS
VL: AIQMTQSPSSLSASVGDRVTITCRASQDIRHDLGWYQQKPGKAPKRLIYAASSLQSGVPSRFSGSGSGTEFTLTISSLQPEDFATYYCLQHNTYPWTFGQGTKVEIKR
Take B4: the “IC50 … A204/Smad2 cells, 0.8 nM GDF8” value in [5] turned out to be 8500 pM. Besides, the “IC50 … A204/Smad2 cells, 0.8 nM GDF11” value with hGDF11 homodimer [6] is 35000 pM. Besides, in test [1], the “IC50, luciferase bioassay, 0.5 nM GDF8” value was determined as 2340 pM and the “IC50, luciferase bioassay, 1 nM GDF8” value came to 2980 pM. Moreover, in the test with hGDF11 homodimer [9], the “IC50, luciferase bioassay, 0.4 nM GDF11” value was 6900 pM and the “IC50, luciferase bioassay, 0.8 nM GDF11” value came to 10500 pM. In test [7], this molecule had a Kd of 260 pM and a T1/2 of 2.3 h. In addition, in the test with hGDF11 homodimer [8], binding was characterised by a dissociation constant (Kd) of 120 pM and the T1/2 came out at 1.93 h.

B5: 1A2-hFc (antibody, V domains shown)
VH: EVQLLESGGGLVQPGGSLRLSCAASGFTSITYAMSWVRQAPGKGLEWVSAISVSGTNTYYADSVKGRFTISRDKSKNMLYLQMNSLRAEDTAVYYCAKDLLHNWKYGTFDIWGQGTMVTVSS
VL: EIVMTQSPATLSVSPGERATLSCRASQSVDSNLVWYQQKPGQVPRLLIYGASTRATGIPARFSGSGSGTEFTLTISSLQSEDFAVYYCQQYNKWPLTFGGGTKVEIK
Turning to B5, in test [10], the “approximate IC50, luciferase bioassay with GDF8/TGFβ[48-72] conditioned medium” value amounted to 357 pM.

B6: 1A2-mIgG (antibody, V domains shown)
VH: EVQLLESGGGLVQPGGSLRLSCAASGFTSITYAMSWVRQAPGKGLEWVSAISVSGTNTYYADSVKGRFTISRDKSKNMLYLQMNSLRAEDTAVYYCAKDLLHNWKYGTFDIWGQGTMVTVSS
VL: EIVMTQSPATLSVSPGERATLSCRASQSVDSNLVWYQQKPGQVPRLLIYGASTRATGIPARFSGSGSGTEFTLTISSLQSEDFAVYYCQQYNKWPLTFGGGTKVEIK
notes: variable domains of 1A2
For the molecule B6, in test [11], binding was characterised by a dissociation constant (Kd) of 18 pM and the T1/2 turned out to be 2.53 h. Besides, in the test with hGDF11 homodimer [12], the Kd is 926 pM and the T1/2 amounted to 1 min.

B7: 1A2-hIgG (antibody, V domains shown)
VH: EVQLLESGGGLVQPGGSLRLSCAASGFTSITYAMSWVRQAPGKGLEWVSAISVSGTNTYYADSVKGRFTISRDKSKNMLYLQMNSLRAEDTAVYYCAKDLLHNWKYGTFDIWGQGTMVTVSS
VL: EIVMTQSPATLSVSPGERATLSCRASQSVDSNLVWYQQKPGQVPRLLIYGASTRATGIPARFSGSGSGTEFTLTISSLQSEDFAVYYCQQYNKWPLTFGGGTKVEIK
notes: variable domains of 1A2
On to B7, for which, in test [11], the Kd came to 6 pM and the T1/2 stood at 5.67 h. Moreover, in the test with hGDF11 homodimer [12], binding was characterised by a dissociation constant (Kd) of 640 pM and the T1/2 is 6 min.

B8: 1A2-hIgG1 (antibody, V domains shown)
VH: EVQLLESGGGLVQPGGSLRLSCAASGFTSITYAMSWVRQAPGKGLEWVSAISVSGTNTYYADSVKGRFTISRDKSKNMLYLQMNSLRAEDTAVYYCAKDLLHNWKYGTFDIWGQGTMVTVSS
VL: EIVMTQSPATLSVSPGERATLSCRASQSVDSNLVWYQQKPGQVPRLLIYGASTRATGIPARFSGSGSGTEFTLTISSLQSEDFAVYYCQQYNKWPLTFGGGTKVEIK
notes: variable domains of 1A2; also called 1A2-hlgG1
In test [2], B8 had a Kd of 62.3 pM and a T1/2 of 1.6 h. In test [3], this molecule displayed a Kd of 46.2 pM and a T1/2 of 0.65 h.

B9: 21-A2 (antibody, V domains shown)
VH: QVQLVQSGGGLVQPGGSLRLSCAASGFTFNTYAISWVRQAPGKGLEWVSTITGSGYNTYYADSVKGRFTISRDNSKNTLYLQMSSLRAEDTAVFYCAKDSRYNWNYGIFDYWGQGTTVTVSS
VL: DIQMTQSPATLSVSPGERATLSCRASQSVSSNLAWYHQKPGQAPRLLIYGVSTRATGIPARFSGNGSGTEFTLTISSLQSEDFAVYYCQQHNNWPLTFGGGTKVEIKR
For the molecule B9, the “IC50 … A204/Smad2 cells, 0.8 nM GDF8” value in test [5] was determined as 9700 pM. Also, in the test with hGDF11 homodimer [6], the “IC50 … A204/Smad2 cells, 0.8 nM GDF11” value is over 10000 pM. Moreover, the Kd in test [7] worked out at 400 pM; with hGDF11 homodimer [8], 900 pM. For the same molecule, the values for the T1/2 (in test [7]; in the test with hGDF11 homodimer [8]) were 1.3 h and 0.35 h, respectively.
